# Data from patent US20220242950A1 (CANTARGIA, published 2022).
# Like-named read-outs stand apart in the source and are kept apart here.
# T1: human IL1RAP on the cell surface (human, UniProt Q9NPH3 21-570)
# T1 sequence (looked up): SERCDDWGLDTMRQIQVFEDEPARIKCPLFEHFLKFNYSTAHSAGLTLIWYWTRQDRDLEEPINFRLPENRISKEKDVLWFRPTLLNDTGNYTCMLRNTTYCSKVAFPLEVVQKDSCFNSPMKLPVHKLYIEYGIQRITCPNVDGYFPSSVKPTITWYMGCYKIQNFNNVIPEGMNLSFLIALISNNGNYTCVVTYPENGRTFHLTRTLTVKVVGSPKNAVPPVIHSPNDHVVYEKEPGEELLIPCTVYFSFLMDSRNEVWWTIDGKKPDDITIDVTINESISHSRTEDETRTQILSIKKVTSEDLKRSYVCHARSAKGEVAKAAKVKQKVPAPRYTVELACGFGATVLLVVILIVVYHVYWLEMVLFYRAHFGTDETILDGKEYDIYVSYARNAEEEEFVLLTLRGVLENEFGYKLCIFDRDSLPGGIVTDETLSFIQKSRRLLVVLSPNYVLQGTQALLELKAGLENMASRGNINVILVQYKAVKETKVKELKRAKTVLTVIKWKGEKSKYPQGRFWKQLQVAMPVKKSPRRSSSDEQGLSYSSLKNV
# T2: recombinant hIL1RAP Domain1+2+3 (aa21-367) (human, UniProt Q9NPH3 21-367)
# T2 construct: Numbering on Uniprot Q9NPH3
# T2 sequence (looked up): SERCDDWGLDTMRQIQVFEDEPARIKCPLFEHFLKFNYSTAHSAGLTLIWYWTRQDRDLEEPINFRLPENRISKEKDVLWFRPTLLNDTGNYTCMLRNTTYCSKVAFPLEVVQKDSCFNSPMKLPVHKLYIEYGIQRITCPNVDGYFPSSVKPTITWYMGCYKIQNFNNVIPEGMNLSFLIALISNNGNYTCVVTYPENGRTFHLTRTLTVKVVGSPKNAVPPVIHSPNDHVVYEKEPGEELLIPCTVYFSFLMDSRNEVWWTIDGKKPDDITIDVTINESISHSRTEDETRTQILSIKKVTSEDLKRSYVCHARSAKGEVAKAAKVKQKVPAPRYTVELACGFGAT
# T3: recombinant mf IL1RAP aa21-367 (cynomolgus monkey (Macaca fascicularis), UniProt A0A2K5X5J5 21-367)
# T3 construct: also called cynomolgus monkey IL1RAP; cyno IL1RAP
# T3 sequence: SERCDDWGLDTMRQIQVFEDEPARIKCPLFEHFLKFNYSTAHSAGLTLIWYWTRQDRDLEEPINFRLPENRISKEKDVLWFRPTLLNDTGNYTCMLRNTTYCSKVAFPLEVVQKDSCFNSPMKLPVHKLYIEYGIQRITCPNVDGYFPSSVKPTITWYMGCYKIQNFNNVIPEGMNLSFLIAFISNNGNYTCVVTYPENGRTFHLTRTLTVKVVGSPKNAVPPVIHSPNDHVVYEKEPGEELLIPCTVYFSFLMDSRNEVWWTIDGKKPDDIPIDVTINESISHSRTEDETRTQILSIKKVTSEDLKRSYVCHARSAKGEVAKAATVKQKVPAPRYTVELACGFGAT
# What was measured:
# [1] = biological target: T1, human IL1RAP on the cell surface; experiment: cell-based or functional assay
# [2] = biological target: T2, recombinant hIL1RAP Domain1+2+3 …; experiment: bio-layer interferometry, human IL1RAP
# Method: (§1) Affinity measurements were done on BLItz™ Label-Free Protein Analysis System from ForteBio, using the Basic Kinetics module in the BLItz Pro 1.3.1.3 software from Molecular Devices. Protein A biosensors were hydrated in blocking buffer (PBS, 0.5% BSA, 0.05% Tween 20, pH 7.4) for minimum 10 min at room temperature before coating. Protein A biosensors were coated with antibodies by dipping the biosensors in 200 μl of antibody solution (10 μg/ml in blocking buffer) for 30 min at room temperature. The sensors were then incubated in 200 μl blocking buffer for at least 10 min before use. […] The baseline was made in blocking buffer with a duration time of 30 sec. Association was made for 120 sec in hIL1RAP followed by 120 sec dissociation in blocking buffer.
# KD values for affinity towards human IL1RAP are shown in Table 17 for the de-immunized h48D2 variants. Affinity was measured using bio-layer interferometry. […] See also Table 4 for a direct comparison of 48D2, humanized 48D2, and de-immunized h48D2.
# [3] = biological target: T2, recombinant hIL1RAP Domain1+2+3 …; experiment: bio-layer interferometry, human IL1RAP; remark: listed apart in the source
# Method: as §1
# The antibodies were characterized for A) binding (ELISA analysis, human and cynomolgus monkey IL1RAP), B) inhibition of cytokine signaling (HEK-Blue™ assay), C) affinity (Bio-layer interferometry), D) size heterogeneity (SE-HPLC) and E) yield (concentration, A280). […] SE-HPLC was performed using standard procedures and PBS as running buffer. Affinity and cytokine inhibition were measured as previously described in Example 10. All 25 humanized clones were analyzed for blocking activity on IL-1α, IL-1β and IL-33 signaling while only the clones that had retained the inhibitory activity similar to chimeric 48D2 were analyzed for IL-36 inhibition.
# KD values for affinity towards human IL1RAP are shown in Table 11 for the humanized 48D2 variants. Affinity was measured using bio-layer interferometry. […] See also Table 4 for a direct comparison of chimeric 48D2, humanized 48D2 variant VH5:VL4, and a humanized and de-immunized 48D2 variant VH5.GL:VL4.
# [4] = biological target: T2, recombinant hIL1RAP Domain1+2+3 …; experiment: BLI (BLItz), antibody on Protein A biosensor, hIL1RAP (21-367) in solution
# Method: as §1
# Affinity measurement results are shown in Table 4 for chimeric 48D2, as well as for humanized 48D2 variant VH5:VL4 (see Example 11) and for humanized and de-immunized 48D2 variant VH5.GL:VL4 (see Example 13). kₐ is the association rate constant, for characterization of the antibody binding to the target, kd is the dissociation rate constant, for characterization of the antibody dissociation from the target, and KD is the equilibrium dissociation constant between the antibody and its antigen, the ratio of kd/kₐ. […] The lower the KD value (lower concentration), the higher the affinity.
# [5] = biological target: T3, recombinant mf IL1RAP aa21-367; experiment: binding ELISA, coated recombinant mf IL1RAP aa21-367
# [6] = biological target: T2, recombinant hIL1RAP Domain1+2+3 …; experiment: binding ELISA, coated recombinant hIL1RAP aa21-367
# [7] = biological target: T1, human IL1RAP on the cell surface; experiment: cell-based or functional assay; remark: listed apart in the source
Binder,IC50 of IL-1α signaling (HEK-Blue assay) [1],IC50 of IL-1β signaling (HEK-Blue assay) [1],IC50 of IL-33 signaling (HEK-Blue assay) [1],IC50 of IL-36α signaling (HEK-Blue assay) [1],IC50 of IL-36β signaling (HEK-Blue assay) [1],IC50 of IL-36γ signaling (HEK-Blue assay) [1],Kd [2],Kd [3],Kd [4],koff [4],kon [4],IC50 [5],IC50 [6],IC50 of IL-1α signaling (HEK-Blue assay) [7],IC50 of IL-33 signaling (HEK-Blue assay) [7],IC50 of IL-36α signaling (HEK-Blue assay) [7],IC50 of IL-36β signaling (HEK-Blue assay) [7],IC50 of IL-36γ signaling (HEK-Blue assay) [7]
"h48D2 VH5.SK:VL4 (antibody, human IgG1, kappa, L234A L235A, V domains shown, Humanized and de-immunized; also called VL4:VH5.SK) VH: QEQLEESGGGLVKPGGTLSLTCTVSGPSLSHFDITWIRQAPGKGLEWIGTISPGVSTYYASWAKSRVTISVDTSLNTVSLKLSSVTAADTATYFCARGGVGSSWKAFDLWGPGTLVTISS VL: ELVMTQSPSSVSASVGDRVTITCQASESISTALAWYQQKPGKAPKLLIYKASTLPSGVPSRFSGSGSGTDFTLTINSLQPEDFATYYCQQGFSSGNVHNAFGGGTKVEIKR",0.213 nM,0.099 nM,5.44 nM,0.143 nM,0.108 nM,0.17 nM,2 nM,,,,,,,,,,,
"h48D2 VH5.AP:VL5 (antibody, human IgG1, kappa, L234A L235A, Humanized and de-immunized; also called VL5:VH5.AP) heavy: not shown light: APVLTQSPATLEASVGDRVTITCQASESISTALAWYQQKPGQPPKLLIYKASTLPSGVPSRFSGSGSGTEFTLTISDLESDDAATYYCQQGFSSGNVHNAFGGGTEVVVKRTVAAPSVFIFPPSDEQLKSGTASVVCLLNNFYPREAKVQWKVDNALQSGNSQESVTEQDSKDSTYSLSSTLTLSKADYEKHKVYACEVTHQGLSSPVTKSFNRGEC",0.178 nM,0.098 nM,1.68 nM,0.149 nM,0.134 nM,0.191 nM,1.96 nM,,,,,,,,,,,
"h48D2 VH5.GL:VL5 (antibody, human IgG1, kappa, L234A L235A, Humanized and de-immunized; also called VL5:VH5.GL) heavy: not shown light: APVLTQSPATLEASVGDRVTITCQASESISTALAWYQQKPGQPPKLLIYKASTLPSGVPSRFSGSGSGTEFTLTISDLESDDAATYYCQQGFSSGNVHNAFGGGTEVVVKRTVAAPSVFIFPPSDEQLKSGTASVVCLLNNFYPREAKVQWKVDNALQSGNSQESVTEQDSKDSTYSLSSTLTLSKADYEKHKVYACEVTHQGLSSPVTKSFNRGEC",0.214 nM,0.0999 nM,2.46 nM,0.128 nM,0.135 nM,0.129 nM,1.87 nM,,,,,,,,,,,
"h48D2 VH5.AP:VL5.GL (antibody, human IgG1, kappa, L234A L235A, Humanized and de-immunized; also called VL5.GL:VH5.AP) heavy: not shown light: DIQMTQSPSTLSASVGDRVTITCQASESISTALAWYQQKPGQPPKLLIYKASTLPSGVPSRFSGSGSGTEFTLTISDLESDDAATYYCQQGFSSGNVHNAFGGGTEVVVKRTVAAPSVFIFPPSDEQLKSGTASVVCLLNNFYPREAKVQWKVDNALQSGNSQESVTEQDSKDSTYSLSSTLTLSKADYEKHKVYACEVTHQGLSSPVTKSFNRGEC",0.204 nM,0.107 nM,2.97 nM,0.178 nM,0.162 nM,0.19 nM,1.5 nM,,,,,,,,,,,
"h48D2 VH5.SK:VL5 (antibody, human IgG1, kappa, L234A L235A, Humanized and de-immunized; also called VL5:VH5.SK) heavy: not shown light: APVLTQSPATLEASVGDRVTITCQASESISTALAWYQQKPGQPPKLLIYKASTLPSGVPSRFSGSGSGTEFTLTISDLESDDAATYYCQQGFSSGNVHNAFGGGTEVVVKRTVAAPSVFIFPPSDEQLKSGTASVVCLLNNFYPREAKVQWKVDNALQSGNSQESVTEQDSKDSTYSLSSTLTLSKADYEKHKVYACEVTHQGLSSPVTKSFNRGEC",0.172 nM,0.061 nM,2.87 nM,0.136 nM,0.125 nM,0.157 nM,2.8 nM,,,,,,,,,,,

# Now from value to binder:
IC50 of IL-1α signaling (HEK-Blue assay) [1],IC50 of IL-1β signaling (HEK-Blue assay) [1],IC50 of IL-33 signaling (HEK-Blue assay) [1],IC50 of IL-36α signaling (HEK-Blue assay) [1],IC50 of IL-36β signaling (HEK-Blue assay) [1],IC50 of IL-36γ signaling (HEK-Blue assay) [1],Kd [2],Kd [3],Kd [4],koff [4],kon [4],IC50 [5],IC50 [6],IC50 of IL-1α signaling (HEK-Blue assay) [7],IC50 of IL-33 signaling (HEK-Blue assay) [7],IC50 of IL-36α signaling (HEK-Blue assay) [7],IC50 of IL-36β signaling (HEK-Blue assay) [7],IC50 of IL-36γ signaling (HEK-Blue assay) [7],Binder
,,,,,,,1.67 nM,2.74 nM,0.000172 s⁻¹,60200 M⁻¹ s⁻¹,0.028 µg/mL,0.0258 µg/mL,6.47 nM,2 nM,~0.0025 nM,~0.342 nM,2.83 nM,"h48D2 VH5:VL4 (antibody, human IgG1, kappa, L234A L235A, V domains shown, Humanized; also called VL4:VH5; humanized 48D2 variant VH5:VL4) VH: QEQLEESGGGLVKPGGTLSLTCTVSGPSLSHFDITWIRQAPGSGLEWIGTISPGVSTYYASWAKSRVTISVDTSLNTVSLKLSSVTAADTATYFCARGGVGSSWKAFDLWGPGTLVTISS VL: ELVMTQSPSSVSASVGDRVTITCQASESISTALAWYQQKPGKAPKLLIYKASTLPSGVPSRFSGSGSGTDFTLTINSLQPEDFATYYCQQGFSSGNVHNAFGGGTKVEIKR"
0.236 nM,0.105 nM,7.83 nM,0.158 nM,0.165 nM,0.217 nM,0.752 nM,,,,,,,,,,,,"h48D2 VH5:VL5.GL (antibody, human IgG1, kappa, L234A L235A, Humanized and de-immunized; also called VL5.GL:VH5) heavy: not shown light: DIQMTQSPSTLSASVGDRVTITCQASESISTALAWYQQKPGQPPKLLIYKASTLPSGVPSRFSGSGSGTEFTLTISDLESDDAATYYCQQGFSSGNVHNAFGGGTEVVVKRTVAAPSVFIFPPSDEQLKSGTASVVCLLNNFYPREAKVQWKVDNALQSGNSQESVTEQDSKDSTYSLSSTLTLSKADYEKHKVYACEVTHQGLSSPVTKSFNRGEC"
0.321 nM,0.117 nM,3.11 nM,0.204 nM,0.16 nM,0.245 nM,2.28 nM,,,,,,,,,,,,"h48D2 VH5.SK:VL5.GL (antibody, human IgG1, kappa, L234A L235A, Humanized and de-immunized; also called VL5.GL:VH5.SK) heavy: not shown light: DIQMTQSPSTLSASVGDRVTITCQASESISTALAWYQQKPGQPPKLLIYKASTLPSGVPSRFSGSGSGTEFTLTISDLESDDAATYYCQQGFSSGNVHNAFGGGTEVVVKRTVAAPSVFIFPPSDEQLKSGTASVVCLLNNFYPREAKVQWKVDNALQSGNSQESVTEQDSKDSTYSLSSTLTLSKADYEKHKVYACEVTHQGLSSPVTKSFNRGEC"
